Assay results taken from EP2164866B1.

Biological target: epidermal growth factor receptor (EGFR) on EGFR positive U87 cells (UniProt P00533)
Assay: FACS saturation binding to EGFR receptor

“EGFR antibody (monoclonal 528 available from ATCC)” was tested, and the Bmax (RFU) was 23.6 RFU and the Half saturation was 1.7 nM.

For “Anti-EGFR-Angiopep-2 conjugate (EGFR antibody monoclonal 528 cross-linked to Angiopep-2 with SATA)”, the Half saturation was 1.8 nM.
